Test results as given in patent US11572561B2, “Method and composition for inhibiting growth of bacterium” (priority 2020, dated 2023).
Entries after “also recorded” stand apart in the source; their conditions may differ.

Legend:
[1] = tested on: resistance strains of P. aeruginosa (R3); assay: MIC measurement (microbroth dilution) of resistance strain overexpressing sRNA; assay type: cell-based; conditions: transformed R3 strain
Source text: Different classes of antibiotics including aminoglycoside, cephalosporin, beta-lactam, extended-spectrum penicillin beta-lactam, fluoroquinolone were used. Antibiotics susceptibility and resistance strains are highlighted. R3-AS1974, R3-AS2779 and R3-IGR2780 represent R3 strains transformed with the corresponding sRNA while R3-AS1974-Reverse represents R3 strains transformed the sRNA which sequence was reverse and complementary to AS1974 (negative control). R3-empty vector was used as vector control. The strain ATCC27853 was used for quality control.
To find out if the sRNAs directly play a role in the intrinsic drug resistance of bacteria, each of the sRNAs was overexpressed in the resistance strains of P. aeruginosa, and MIC measurements were performed. […]
The MICs of 11 antibiotics, including penicillin G, cefotaxime, chloramphenicol, tetracycline, erythromycin, lincomycin, ciprofloxacin (Sigma, St. Louis, Mo., USA), levofloxacin (Daiichi Sankyo, Tokyo, Japan), gatifloxacin (Bristol-Myers Squibb, Moreton, UK), moxifloxacin (Bayer Healthcare Pharmaceuticals, Berlin, Germany), and linezolid (Pfizer, NJ, USA), were determined using the microbroth dilution method, according to the Clinical and Laboratory Standards Institute (CLSI). […]

[2] = tested on: AS1974 target genes (mexD, chtA, prc, major facilitator superfamily, pilD, ndvB); assay: Real-time qPCR of AS1974 target genes in AS1974-overexpressing resistance strain; assay type: cell-based, P. aeruginosa; conditions: R3-AS1974 vs R3-EV (empty vector)
Method: One of the major functions of sRNAs is to suppress the target gene expression under particular conditions or in response to external stimuli. To find out the regulatory roles of AS1974 sRNAs in various drug resistance pathways, the inventors sequenced the transcriptomes of six strains, and they used newly developed program to correlate sRNA repertoires with transcriptomes. […] To validate the transcriptome result, real-time qPCR experiments were performed to measure and compare the transcript levels of these genes in both drug-susceptible and drug-resistant strains.
To further investigate if these drug-resistant genes were directly controlled by this sRNA, AS1974 was overexpressed in the resistance strain and their transcript levels were measured by qPCR. Empty vector was used as a negative control. […]
Six P. aeruginosa strains, S1, S2, S3, R1, R2, and R3, were grown at 37° C. overnight in nutrient broth with shaking at 250 rpm and harvested at stationary phase (OD600=1.5-1.7). […] Melting curves were determined by an auto-dissociation program. […] The results were expressed as the means of at least 3 independent experiments. Data are presented as mean±SD, and comparisons were analyzed using unpaired t test (two tailed: *p<0.05, **p<0.01, and ***p<0.001).

[3] = tested on: total transcripts of P. aeruginosa; assay: Transcriptome profile comparison of AS1974-transformed and control strains (off-target effect); assay type: cell-based; conditions: AS1974-transformed vs control strains

B1: AS1974: sRNA of P. aeruginosa, SEQ ID NO: 2, located at the antisense region of mexR (nucleic acid, listed as Pseudomonas aeruginosa)
chain: GAATGTTCTTAAATATCCTCAAGCGGTTGCGCGGCCAGGCACTGGTCGAGGAGATGCACCAGGGTGGCCTGTTCCACCGGGGTGAGCGGGGCAAACAACTCGTCATGCACGCGTGACATGATGGCCTC
[1]; chloramphenicol
  resistance of the AS1974-overexpressed strain to chloramphenicol: still showed resistance
[1]; aminoglycoside, cephalosporin, meropenem, ertapenem, empty vector control
  effect of sRNA overexpression on MIC / antibiotic susceptibility of the resistance strain: hypersusceptibility; also recorded: transformed the bacteria from resistant strains to drug-sensitive strains
[2]
  target gene expression upon overexpression of sRNA: downregulated
[3]
  total transcripts affected (off-target effect): less than 1%
